In IntAct's records for PubMed 22885598:

B1: Autophagy-related protein 13 (Saccharomyces cerevisiae), Q06628 (parent)
chain: MVAEEDIEKQVLQLIDSFFLKTTLLICSTESSRYQSSTENIFLFDDTWFEDHSELVSELPEIISKWSHYDGRKELPPLVVETYLDLRQLNSSHLVRLKDHEGHLWNVCKGTKKQEIVMERWLIELDNSSPTFKSYSEDETDVNELSKQLVLLFRYLLTLIQLLPTTELYQLLIKSYNGPQNEGSSNPITSTGPLVSIRTCVLDGSKPILSKGRIGLSKPIINTYSNALNESNLPAHLDQKKITPVWTKFGLLRVSVSYRRDWKFEINNTNDELFSARHASVSHNSQGPQNQPEQEGQSDQDIGKRQPQFQQQQQPQQQQQQQQQQQRQHQVQTQQQRQIPDRRSLSLSPCTRANSFEPQSWQKKVYPISRPVQPFKVGSIGSQSASRNPSNSSFFNQPPVHRPSMSSNYGPQMNIEGTSVGSTSKYSSSFGNIRRHSSVKTTENAEKVSKAVKSPLQPQESQEDLMDFVKLLEEKPDLTIKKTSGNNPPNINISDSLIRYQNLKPSNDLLSEDLSVSLSMDPNHTYHRGRSDSHSPLPSISPSMHYGSLNSRMSQGANASHLIARGGGNSSTSALNSRRNSLDKSSNKQGMSGLPPIFGGESTSYHHDNKIQKYNQLGVEEDDDDENDRLLNQMGNSATKFKSSISPRSIDSISSSFIKSRIPIRQPYHYSQPTTAPFQAQAKFHKPANKLIDNGNRSNSNNNNHNGNDAVGVMHNDEDDQDDDLVFFMSDMNLSKEG
partner: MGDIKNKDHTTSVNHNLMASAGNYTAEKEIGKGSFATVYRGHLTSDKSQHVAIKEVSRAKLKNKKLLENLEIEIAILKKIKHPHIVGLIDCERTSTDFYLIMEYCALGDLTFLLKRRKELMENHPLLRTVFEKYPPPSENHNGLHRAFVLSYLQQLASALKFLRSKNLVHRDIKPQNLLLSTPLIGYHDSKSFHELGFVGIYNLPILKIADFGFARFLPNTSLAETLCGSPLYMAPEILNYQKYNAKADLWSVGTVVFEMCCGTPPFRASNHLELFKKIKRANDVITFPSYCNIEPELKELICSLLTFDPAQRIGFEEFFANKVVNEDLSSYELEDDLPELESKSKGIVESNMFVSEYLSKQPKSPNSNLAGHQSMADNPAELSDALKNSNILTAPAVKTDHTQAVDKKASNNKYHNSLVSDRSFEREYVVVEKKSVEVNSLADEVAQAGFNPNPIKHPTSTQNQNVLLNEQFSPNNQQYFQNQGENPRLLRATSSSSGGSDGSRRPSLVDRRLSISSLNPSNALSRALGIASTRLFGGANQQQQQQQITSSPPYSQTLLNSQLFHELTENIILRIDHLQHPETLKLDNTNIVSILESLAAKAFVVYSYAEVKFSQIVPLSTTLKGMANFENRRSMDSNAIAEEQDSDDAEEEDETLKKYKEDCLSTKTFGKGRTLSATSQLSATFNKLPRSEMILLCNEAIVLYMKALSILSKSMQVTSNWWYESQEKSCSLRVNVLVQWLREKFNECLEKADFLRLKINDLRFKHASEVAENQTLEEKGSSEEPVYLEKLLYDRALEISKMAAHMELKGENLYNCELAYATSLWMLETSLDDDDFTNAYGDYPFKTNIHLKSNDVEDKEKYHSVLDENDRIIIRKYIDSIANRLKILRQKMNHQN

Variants of: B1
Conditions: with atg1_yeast ATG1, P53104
With F468A the “effect of a mutation on the interaction” value was “disrupting interaction”.
V469A was tested, and the “effect of a mutation on the interaction” value was “disrupting interaction”.

Variants of: B1
Conditions: with atg1_yeast ATG1, P53104
Remark: another data set of the same source
With F468A the “effect of a mutation on the interaction” value was “decreasing interaction”.
